# Reference: publication PMC9884874 (Journal for Immunotherapy of Cancer, 2023)
# B1: CCN1: recombinant CCN1, a secreted matricellular protein, added to macrophages (protein, UniProt O00622 25-381, looked up)
# CCN family member 1: TCPAACHCPLEAPKCAPGVGLVRDGCGCCKVCAKQLNEDCSKTQPCDHTKGLECNFGASSTALKGICRAQSEGRPCEYNSRIYQNGESFQPNCKHQCTCIDGAVGCIPLCPQELSLPNLGCPNPRLVKVTGQCCEEWVCDEDSIKDPMEDQDGLLGKELGFDASEVELTRNNELIAVGKGSSLKRLPVFGMEPRILYNPLQGQKCIVQTTSWSQCSKTCGTGISTRVTNDNPECRLVKETRICEVRPCGQPVYSSLKKGKKCSKTKKSPEPVRFTYAGCLSVKKYRPKYCGSCVDGRCCTPQLTRTVKMRFRCEDGETFSKNVMMIQSCKCNYNCPHANEAAFPFYRLFNDIHKFRD
# What was measured:
# tumor = settings: single agent or in combination with anti-PD-1 ab, mouse models; cited from earlier work
# Ccn1 = Ccn1 mRNA level in cells; assay type: cell-based, mouse
# [1] = system: mouse bone-marrow-derived macrophages (BMDM); assay: uptake of pHrodo-labeled apoptotic thymocytes by BMDM; assay type: cell-based; settings: pHrodo-labeled apoptotic thymocytes as target cells
# BMDM = assay: recombinant CCN1 treatment of BMDM, CD206+ frequency; assay type: cell-based, mouse
# mouse peritoneal MQ = settings: 100 µg/mL CCN1, direct exposure; cited from earlier work
# CD8+ T cells = CD8+ T cells co-cultured with MC38 CCM-educated MQ or DC; assay type: cell-based, mouse
molecule,measurement,setting,value
CCOc1ccn(-c2ccc(F)cc2)c(=O)c1C(=O)Nc1ccc(Oc2ccnc(N)c2Cl)c(F)c1 [BMS-777607],tumor-growth-inhibitory effects,tumor,excellent tumor-growth-inhibitory effects
COc1cc2nccc(Oc3ccc(NC(=O)c4cn(C(C)C)c(=O)n(-c5ccc(F)cc5)c4=O)cc3F)c2cc1OC [RXDX-106],tumor-growth-inhibitory effects,tumor,excellent tumor-growth-inhibitory effects
CCCCNc1ncc(-c2ccc(CN3CCOCC3)cn2)c(NC2CCC(O)CC2)n1 (stereo not drawn) [UNC2250],mRNA level of Ccn1 in BMDM primed with MC38 culture media,Ccn1,could not decrease
same,ability of phagocytosis in BMDM,[1],significantly decreased
B1,frequency of M2-skewed MQ,BMDM; 10–500 ng/mL CCN1,increases
same,frequency of CD206+ BMDM,"BMDM; recombinant CCN1, concentration-dependent and in presence of MC38 CCM",increased
same,differentiation into M1-skewing MQ producing pro-inflammatory cytokines,mouse peritoneal MQ,promotes differentiation into M1-skewing MQ
same,effect of CCN1 addition on KRCT87-mediated immune-boosting effects,CD8+ T cells; CCN1 addition to DC,could not nullify
same,"effect of CCN1 addition on KRCT87-elevated granzyme B, IFN-γ, TNF-α production",CD8+ T cells; MQ educated by MC38-CCM,completely reversed
